# Measurements: US20250163167A1 (SYNTHEKINE, published 2025)
# B1: IL10R binding molecule of SEQ ID NO: 312 (bispecific antibody)
# chain: QVQLQESGGGSVQAGGSLRLSCAASGYTYSSYCMGWFRQAPGKEREGVAHIDSDGSTSYADSVKGRFTISKDNAKNTLYLQMNSLKPEDTAMYYCAADPIPGPGYCDGGPNKYWGQGTQVTVSSGGGSQVQLQESGGGSVQAGGSLRLSCAASRYLYSIDYMAWFRQSPGKEREPVAVIYTASGATFYPDSVKGRFTISQDNAKMTVYLQMNSLKSEDTAMYYCAAVRKTDSYLFDAQSFTYWGQGTQVTVSSASHHHHHH
# B2: IL10R binding molecule of SEQ ID NO: 304 (bispecific antibody)
# chain: QVQLQESGGGSVQAGGSLRLSCAASGYSNCSYDMTWYRQAPGKEREFVSAIHSDGSTRYADSVKGRFFISQDNAKNTVYLQMNSLKPEDTAMYYCKTDPLHCRAHGGSWYSVRANYWGQGTQVTVSSGGGSQVQLQESGGGSVQTGGSLRLSCAASGYTYLRGCMGWFRQAPGKEREGVAVMDVVGDRRSYIDSVKGRFTISRDNAANSVYLQMDNLKPEDTAMYYCTAGPNCVGWRSGLDYWGQGTQVTVSSASHHHHHH
# B3: IL10R binding molecule of SEQ ID NO: 307 (bispecific antibody)
# chain: QVQLQESGGGSVQAGGSLRLSCAASGYTYSSGCMGWFRQAPGKEREAVAAINSDGSTSYADSVKGRFTISKDNAKNTLYLQMNSLKPEDTAMYYCAAEPYCSGGYPRWSVAEFGYWGQGTQVTVSSGGGSQVQLQESGGGSVQAGGSLRLSCAASGYTYSMYCMGWFRQAPGKEREGVAQINSDGSTSYADSVKGRFTISKDNAKNTLYLQMNSLKPEDTAMYYCAADSRVYGGSWYERLCGPYTYEYNYWGQGTQVTVSSASHHHHHH
# B4: IL10R binding molecule of SEQ ID NO: 310 (bispecific antibody)
# chain: QVQLQESGGGSVQAGGSLRLSCAASGYTYSSGCMGWFRQAPGKEREAVAAINSDGSTSYADSVKGRFTISKDNAKNTLYLQMNSLKPEDTAMYYCAAEPYCSGGYPRWSVAEFGYWGQGTQVTVSSGGGSQVQLQESGGGSVQAGGSLRLSCGASGYTYSSYCMGWFRQVPGKEREGVAVIDSDGSTSYADSVKGRFTISKDNGKNTLYLQMNSLKPEDTAMYYCAADLGHYRPPCGVLYLGMDYWGKGTQVTVSSASHHHHHH
# B5: wild-type human IL-10 (Recombinant Animal-Free Human IL-10, Shenandoah Biotechnology) (ligand)
# chain: SPGQGTQSENSCTHFPGNLPNMLRDLRDAFSRVKTFFQMKDQLDNLLLKESLLEDFKGYLGCQALSEMIQFYLEEVMPQAENQDPDIKAHVNSLGENLKTLRLRLRRCHRFLPCENKSKAVEQVKNAFNKLQEKGIYKAMSEFDIFINYIEAYMTMKIRN
# B6: IL10R binding molecule of SEQ ID NO: 309 (bispecific antibody)
# chain: QVQLQESGGGSVQAGGSLRLSCAASGYTYSSGCMGWFRQAPGKEREAVAAINSDGSTSYADSVKGRFTISKDNAKNTLYLQMNSLKPEDTAMYYCAAEPYCSGGYPRWSVAEFGYWGQGTQVTVSSGGGSQVQLQESGGGSVQAGGSLRLSCTVSGYTYSSNCMGWFRQAPGKEREGVATIYTGGGNTYYADSVKGRFTISQDNAKNTVYLQMNNLKPEDTAMYYCAAEPLSRVYGGSCPTPTFDYWGQGTQVTVSSASHHHHHH
# B7: IL10R binding molecule of SEQ ID NO: 311 (bispecific antibody)
# chain: QVQLQESGGGSVQAGGSLRLSCAASGYTYSSGCMGWFRQAPGKEREAVAAINSDGSTSYADSVKGRFTISKDNAKNTLYLQMNSLKPEDTAMYYCAAEPYCSGGYPRWSVAEFGYWGQGTQVTVSSGGGSQVQLQESGGGSVQAGGSLRLSCAASGYSNCSYDMTWYRQAPGKEREFVSAIHSDGSTRYADSVKGRFFISQDNAKNTVYLQMNSLKPEDTAMYYCKTDPLHCRAHGGSWYSVRANYWGQGTQVTVSSASHHHHHH
# B8: IL10R binding molecule of SEQ ID NO: 260 (bispecific antibody)
# chain: QVQLQESGGGSVQAGGSLRLSCAASRYLYSIDYMAWFRQSPGKEREPVAVIYTASGATFYPDSVKGRFTISQDNAKMTVYLQMNSLKSEDTAMYYCAAVRKTDSYLFDAQSFTYWGQGTQVTVSSGGGSQVQLQESGGGSVEAGGSLRLSCAASGYTHSSYCMGWFRQAPGKEREGVAAIDVDGSTTYADSVKGRFTISKDNAKNTLYLQMNSLKPEDTGMYYCAAEFADCSSNYFLPPGAVRYWGQGTQVTVSSASHHHHHH
# B9: IL10R binding molecule of SEQ ID NO: 313 (bispecific antibody)
# chain: QVQLQESGGGSVQAGGSLRLSCAASGYTYSSYCMGWFRQAPGKEREGVAHIDSDGSTSYADSVKGRFTISKDNAKNTLYLQMNSLKPEDTAMYYCAADPIPGPGYCDGGPNKYWGQGTQVTVSSGGGSQVQLQESGGGSVQAGGSLRLSCAASRFTYSSYCMGWFRQAPGKEREGVASIDSDGSTSYTDSVKGRFTISKDNAKNTLYLQMNSLKPEDTAMYYCALDLMSTVVPGFCGFLLSAGMDYWGKGTQVTVSSASHHHHHH
# B10: IL10R binding molecule of SEQ ID NO: 306 (bispecific antibody)
# chain: QVQLQESGGGSVQAGGSLRLSCAASGYTYSSGCMGWFRQAPGKEREAVAAINSDGSTSYADSVKGRFTISKDNAKNTLYLQMNSLKPEDTAMYYCAAEPYCSGGYPRWSVAEFGYWGQGTQVTVSSGGGSQVQLQESGGGSVQAGGSLRLSCAASRFTYSSYCMGWFRQAPGKEREGVASIDSDGSTSYTDSVKGRFTISKDNAKNTLYLQMNSLKPEDTAMYYCALDLMSTVVPGFCGFLLSAGMDYWGKGTQVTVSSASHHHHHH
# B11: IL10R binding molecule of SEQ ID NO: 305 (bispecific antibody)
# chain: QVQLQESGGGSVQAGGSLRLSCAASGYTYSSGCMGWFRQAPGKEREAVAAINSDGSTSYADSVKGRFTISKDNAKNTLYLQMNSLKPEDTAMYYCAAEPYCSGGYPRWSVAEFGYWGQGTQVTVSSGGGSQVQLQESGGGSVQAGGSLRLSCAASRYLYSIDYMAWFRQSPGKEREPVAVIYTASGATFYPDSVKGRFTISQDNAKMTVYLQMNSLKSEDTAMYYCAAVRKTDSYLFDAQSFTYWGQGTQVTVSSASHHHHHH
# B12: IL10R binding molecule of SEQ ID NO: 259 (bispecific antibody)
# chain: QVQLQESGGGSVQAGGSLRLSCAASRYLYSIDYMAWFRQSPGKEREPVAVIYTASGATFYPDSVKGRFTISQDNAKMTVYLQMNSLKSEDTAMYYCAAVRKTDSYLFDAQSFTYWGQGTQVTVSSGGGSQVQLQESGGGSVQAGGSLRLSCTVSRYTASVNYMGWFRQAPGKEREGVATIFTGAGTTYYANSVKGRFTISRDNAKNTAYLQMNSLKPEDTAIYYCAVDFRGGLLYRPAYEYTYRGQGTQVTVSSASHHHHHH
# B13: IL10R binding molecule of SEQ ID NO: 308 (bispecific antibody)
# chain: QVQLQESGGGSVQAGGSLRLSCAASGYTYSSGCMGWFRQAPGKEREAVAAINSDGSTSYADSVKGRFTISKDNAKNTLYLQMNSLKPEDTAMYYCAAEPYCSGGYPRWSVAEFGYWGQGTQVTVSSGGGSQVQLQESGGGSVQAGGSLRLSCAVSGYAYSTYCMGWFRQAPGKEREGVAAIDSGGSTSYADSVKGRFTISKDNAKNTLYLRMNSLKPEDTAMYYCAAVPPPPDGGSCLFLGPEIKVSKADFRYWGQGTQVTVSSASHHHHHH
# Molecular target: T1, human IL-10 receptor (hIL-10R alpha and beta chains) on HEK-Blue IL-10 reporter cells (human, UniProt Q13651 22-578; Q08334 20-325)
# T1 sequence 1: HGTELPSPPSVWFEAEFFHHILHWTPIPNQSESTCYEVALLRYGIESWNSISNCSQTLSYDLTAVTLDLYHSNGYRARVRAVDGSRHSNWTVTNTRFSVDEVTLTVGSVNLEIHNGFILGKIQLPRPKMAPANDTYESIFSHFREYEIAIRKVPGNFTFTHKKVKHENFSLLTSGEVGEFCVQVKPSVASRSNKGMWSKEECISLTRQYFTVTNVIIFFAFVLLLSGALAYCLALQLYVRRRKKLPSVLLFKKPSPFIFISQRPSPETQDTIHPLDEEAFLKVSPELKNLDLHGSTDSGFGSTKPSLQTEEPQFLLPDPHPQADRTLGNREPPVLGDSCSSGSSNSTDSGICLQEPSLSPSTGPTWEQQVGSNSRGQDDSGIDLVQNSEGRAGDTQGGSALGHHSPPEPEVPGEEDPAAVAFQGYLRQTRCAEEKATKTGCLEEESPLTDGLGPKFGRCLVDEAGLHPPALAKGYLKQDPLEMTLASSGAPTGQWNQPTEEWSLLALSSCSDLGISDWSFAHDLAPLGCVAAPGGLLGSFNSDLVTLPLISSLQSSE
# T1 sequence 2: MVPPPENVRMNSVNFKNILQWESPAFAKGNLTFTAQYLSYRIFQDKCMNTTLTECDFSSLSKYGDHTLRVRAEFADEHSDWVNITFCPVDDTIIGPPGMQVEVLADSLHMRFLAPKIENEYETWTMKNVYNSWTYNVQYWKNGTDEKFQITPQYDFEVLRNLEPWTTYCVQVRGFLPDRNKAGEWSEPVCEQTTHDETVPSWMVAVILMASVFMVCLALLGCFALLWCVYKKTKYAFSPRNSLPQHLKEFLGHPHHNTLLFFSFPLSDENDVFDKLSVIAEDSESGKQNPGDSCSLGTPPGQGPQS
# Experiment: cell-based or functional assay
Binder,Abs 630 (25 nM) [Abs 630],Abs 630 (100 nM) [Abs 630]
B1,0.48,0.39
B2,1.96,2.06
B3,0.44,0.34
B4,0.51,0.44
B5,2.08,2.04
B6,0.45,0.37
B7,0.48,0.4
B8,0.49,0.39
B9,0.47,0.39
B10,0.69,0.49
B11,0.59,0.35
B12,1.85,1.13
B13,0.48,0.39
